Experimental data taken from US6610494B2, “Solid-phase activity assay for biologically active substance” (priority 1996, dated 2003).
One block for each molecule: values may come before it.

Assays:
[1] = ELSA: hydrolysis of plate-bound biotinylated β-glucan by enzymes; format: biochemical; settings: for Relative activity compared to lichenase (mean ± SD, n = 12): enzymes diluted to 5 U/mL per manufacturer values, 0.2 biotin-glucan diluted 1 to 50,000, hydrolysis 15 min, 22° C.
Procedure: Preparation of biotin-glucan conjugates. The technique is based on the principle that active aldehyde groups which is generated after sodium periodate oxidation of the hydroxyl group of the polysaccharide moiety, reacts with ethylenediamine to form an aminated polysaccharide. The Schiff bases that are formed are stabilized by reaction with sodium borohydride (Wong, 1991). The amine groups can then be conjugated to biotin using BNHS. In brief, 75 mg β-glucan was dissolved in 2 mL distilled water and 0.1 mL of 100 mM NaIO4 was then added. The reaction was protected from light and mixed for 0.5 hours at room temperature. The reaction mixture was treated with 1 mL ethylenediamine for 2 hours and unreacted reagents were removed by ethanol precipitation. This involved the addition of 8 mL of 95% (V/V) ethanol to the reaction mixture (3 mL), followed by mixing of the sample, centrifugation at 10000 g for 10 minutes at 0° C. and dissolving the pellet in 2 mL of distilled water. The preparations was washed three times. The washed precipitate was then dissolved in 2 mL distilled water, 5 mg of sodium borohydride were added and the reaction was allowed to proceed for 4 hours at 4° C. The washing steps as indicated above were repeated three times. The biotin ester (BNHS, 15 mg or 0.15 mg) was dissolved in 0.2 mL DMSO, the mixture was allowed to react at room temperature for 3 hours followed by three ethanol precipitations as described above. The final precipitate was dissolved in 3 mL distilled water, divided into aliquots and each aliquot of the BNHS-β-glucan complex was store frozen at […] in sealed polypropylene containers. The ratio of BNHS to β-glucan were 0.2 and 0.002 for the complexes that were synthesized from 15 mg or 0.15 mg BNHS and 75 mg β-glucan, respectively.
The microtitre plates were directly coated with 0.1 mL/well of the biotin-glucan complex diluted in 0.05 M carbonate-bicarbonate buffer (pH=9.6), and then left at room temperature for 1 hr and overnight at […] The usual dilutions of the 0.2 and 0.002 stock biotin-glucan complex were 50,000 and 100 fold, respectively. The plates were washed 3 times with PBS-T buffer and the emptied plates were stored in sealed containers at 0° C. for up to several months.
Test procedures. β-Glucanase (lichenase) was diluted with 20 mM sodium phosphate buffer (pH 6.5) to the desired concentration. The enzyme (100 μL) was added to each well in the biotin-glucan coated microtiter plate, the plate was sealed with a low evaporation lid, and the mixture was incubated for the desired period of time (from 1 to 30 minutes) and at the desired temperature (usually 22-24° C.). The reaction was stopped by emptying the plates followed by washing of the wells three times with pH 7.2 PBS-T. Blanks contained the incubation buffer without enzyme. Alkaline phosphatase-streptavidin (100 μg) diluted 1:1000 in pH 7.2 PBS was added to each well and incubated for 30 minutes at room temperature. The plates were washed six times with pH 7.2 PBS-T and dried at ambient temperature for approximately 10 to 20 minutes. Alkaline phosphatase substrate solution was then added to each well (100 μL) and the microtiter plates were incubated at room temperature for 30 minutes, or until absorbency of the well with no enzyme yielded a value of from 1.5 to 2.0 optical density units. The plates were read at 405 nm using a microtiter plate reader (Bio-Rad Laboratories Ltd., Mississauga, ON, Canada, Model 450).
Other procedures The method for preparing the arabinoxylan substrate was the same as used for β-glucan except the substrate was arabinoxylan rather than β-glucan. The BNHS to arabinoxylan ratio was 0.2 with the stock substrate being diluted 10,000 fold prior to being coated on the plate. The azo-barley-glucan method for the assay of β-glucanase was according to the procedure described by McCleary and Shameer (1987). The precision of the assay was studied using three concentration of enzyme (0.076, 2.1 and 160 mU)/well. […]

trypsin (EC 3.4.21.4) = assay: BEISA: competition of inhibitors or other substances for biotinylated trypsin against coated ovomucoid; format: binding
Procedure: Methods: NHS-biotin solution (5.5 mg in 200 ul dimethyl sulfoxide) and trypsin solution (15 mg in 1000 ul PBS) were mixed and reacted at room temperature for 3 hours with gently shaking. The unconjugated biotin was removed at 4° C. using minicon-15 concentrator (Amicon. Co.). The final volume was 1000 ul.
The 96-well microtiter plate (Falcon 3911) was coated with trypsin egg white inhibitor (ovomucoid, 4 ug/100 ul/well) at 370° C. overnight. The plate was washed once using PBST {[PBS, NaCl, 9.00; Na2HPO4, 1.15; NaH2PO4, 0.23 (g/l) pH 7.2] plus 0.05% Tween-20} and 200 ul of 5% skim milk was added to each well of the plate followed by incubation at 37° C. for 2 hours. The plate was rinsed twice with PBST and 50 ul of PBS was added to each well of the plate except for those in column one where 100 ul of PBS was added. Unlabelled trypsin (50 ul of 400 ug/ml) was added to the wells of the second column followed by successive double dilutions of trypsin in wells up to and including those in column 11. Biotinylated trypsin in PBS (50 ul of 1:3000 dilution of the stock to yield approximately 2 ug/100 ul/well) was added to each well except those in the first column followed by incubation at 37° C. for 1 hour. The final volume in each well was 100 ul. The blank set of wells with no trypsin (column 1) served as the negative control while the last set of wells (column 12) with biotinylated trypsin but no unlabelled trypsin served as the positive control. The plate was then washed three times with PBST and 100 ul of streptavidin-alkaline phosphatase (1:1000 in 50 mM bicarbonate buffer, pH 9.5) was added to each well of the plate and the plate was incubated at room temperature for 30 minutes. The plate was washed five times using PBST and 100 ul/well of p-nitrophenyl phosphate substrate (1 mg/ml in 10% diethanolamine buffer, pH 9.8) was added to the plate followed by incubation at ambient temperature for about 30 minutes. The absorbency was then read at 405 nm using a microplate reader (Bio-Rad laboratories Inc. Mississauga, ON, Canada, model 450). […]

biotinylated α-casein = assay: Solid phase protease activity assay using biotinylated casein; format: biochemical; settings: for Hydrolysis of biotin-casein by proteases / Sensitivity (amount of enzyme required to hydrolyse 10% of the biotinylated α-casein): optimal pH of each protease, 37° C., 30 minutes
Procedure: Preparation of biotinylated casein: 12 mg α-casein in 1 ml of 0.1 M pH 7.2 phosphate-buffer saline [PBS, NaCl, 9.00; Na2HPO4, 1.15; NaH2PO4, 0.23 (g/l)] was allowed to react with 3.6 mg NHS-biotin in 150 ul DMSO for 2 hours at room temperature with gently shaking.
Assay procedure for protease activity using biotinylated casein: The microtitre plates except for the first column of 8 wells were coated using biotinylated α-casein in PBS (0.13 ug/well/100 ul) and incubated for 2 hours at 37° C. The plates were washed three times with 0.1 M PBST (PBS with 0.05% Tween-20). Different concentrations of the enzyme solution as indicated in FIGS. 12-14 (100 ul) were diluted with the appropriate buffer (see Table 2). They were added in triplicate to the wells of a plate followed by incubating in a humid atmosphere at 37° C. for 30 minutes. The plate was washed three times using PBST to terminate the protease reaction. A streptavidin-alkaline phosphatase solution (100 ul/well, 1:1000 dilution in bicarbonate buffer pH 9.5) was added to all wells in the plate except for the first column of 8 wells (as blank) and the plate was incubated at room temperature for 30 minutes. The blank set of wells contained only PBS, no added enzyme and no coating with biotinylated casein. The reaction was stopped by emptying and washing the plate six times with PBST. The pNPP substrate (100 ul/well, 1 mg/ml in 10% diethanolamine buffer pH9.8) was added to each well of the plate followed by incubation at room temperature for about 20 minutes. The absorbency was then read at 405 nm using a microplate reader (Bio-Rad laboratories, Ltd, Mississauga, ON, Canada; model 450). The best sensitivity was obtained when the maximum absorbency was around 2.0 optical density units.

β-glucanase (lichenase) = molecular target: T1, β-glucanase (lichenase) (Bacillus subtilis, UniProt P04957); assay: Influence of exogenous β-glucan on β-glucanase activity in the ELSA; format: biochemical; settings: 0.5 mU β-glucanase/well; 22° C., 15 minutes
T1 construct: purchased Megazyme Pty.Ltd. batch MLI 82001
Source text: (§1) Other procedures The method for preparing the arabinoxylan substrate was the same as used for β-glucan except the substrate was arabinoxylan rather than β-glucan. The BNHS to arabinoxylan ratio was 0.2 with the stock substrate being diluted 10,000 fold prior to being coated on the plate. The azo-barley-glucan method for the assay of β-glucanase was according to the procedure described by McCleary and Shameer (1987). The precision of the assay was studied using three concentration of enzyme (0.076, 2.1 and 160 mU)/well. They were added (100 μl) to wells containing the 0.2 biotin-β-glucan diluted 1 to 50,000 and the mixture was incubated for 15 minutes at 22° C. Other procedures were as described above. The assay within the same titer plate was replicated 8 times. The entire assay was replicated 6 times. In the study on the effects that β-glucan had on enzyme activity, β-glucan (5.12 mg/mL) in 20 mM sodium phosphate buffer (pH6.5) was mixed with an equal volume of 0.2 U/mL of β-glucanase and hydrolysed at 40° C. for 60 minutes. The reaction was stopped by putting the enzyme solution in a boiling water bath for 15 minutes. The control sample contained β-glucan but was not incubated with enzyme and was not subjected to boiling. […]

[2] = ELSA for xylanase using biotin-arabinoxylan complex; format: biochemical
Source text: as §1

[3] = Azo-barley glucan method for β-glucanase; format: biochemical
Source text: as §1

Molecule: 1,4-β-D-glucan-4-glucanohydrolase [Cellulase]
Relative activity compared to lichenase (mean ± SD, n = 12) [1]: 101 ± 7

Interference with the binding of labelled trypsin to trypsin inhibitor (trypsin (EC 3.4.21.4)): did not interfere
Molecule: CC(C)C[C@H](NC(=O)N[C@H](C(=O)N[C@@H](CCC(N)=O)C(=O)N[C@@H](C)C=O)[C@@H]1CCNC(=N)N1)C(=O)O [elastatinal]

Molecule: CC(=O)N[C@@H](CC(C)C)C(=O)N[C@@H](CC(C)C)C(=O)N[C@H](C=O)CCCNC(=N)N [leupeptin]
Concentration of inhibitor that could be detected (trypsin (EC 3.4.21.4); ovomucoid-coated plate 4 ug/100 ul/well, biotinylated trypsin about 2 ug/100 ul/well): 0.03 to 1 µg/mL

Molecule: amylopectin 6-glycohydrolase [Pullulanase]
Relative activity compared to lichenase (mean ± SD, n = 12) [1]: 1.8 ± 0.1

Interference with the binding of labelled trypsin to trypsin inhibitor (trypsin (EC 3.4.21.4)): did not interfere
Molecule: bovine serum albumin (BSA): other protein tested for interference

Sensitivity (amount of enzyme required to hydrolyse 10% of the biotinylated α-casein) (biotinylated α-casein): 4.4 ng/100 ul/sample
Molecule: elastase
Hydrolysis of biotin-casein by proteases (biotinylated α-casein): Yes

Molecule: endo-1,4-β-D xylan xylanohydrolase [Endo-β-xylanase]
Relative activity compared to lichenase (mean ± SD, n = 12) [1]: 2.1 ± 0.1

Sensitivity (amount of enzyme required to hydrolyse 10% of the biotinylated α-casein) (biotinylated α-casein): 641 ng/100 ul/sample
Molecule: pepsin
Hydrolysis of biotin-casein by proteases (biotinylated α-casein): Yes

Molecule: β-glucan
Amount of β-glucan in the well above which enzyme activity was reduced (β-glucanase (lichenase)): exceeded 1 μg/well

B1: 1,4-D glucan glucanohydrolase (protein, UniProt P00690 16-511, looked up)
Pancreatic alpha-amylase: QYAPQTQSGRTSIVHLFEWRWVDIALECERYLGPKGFGGVQVSPPNENIVVTNPSRPWWERYQPVSYKLCTRSGNENEFRDMVTRCNNVGVRIYVDAVINHMCGSGAAAGTGTTCGSYCNPGNREFPAVPYSAWDFNDGKCKTASGGIESYNDPYQVRDCQLVGLLDLALEKDYVRSMIADYLNKLIDIGVAGFRIDASKHMWPGDIKAVLDKLHNLNTNWFPAGSRPFIFQEVIDLGGEAIQSSEYFGNGRVTEFKYGAKLGTVVRKWSGEKMSYLKNWGEGWGFMPSDRALVFVDNHDNQRGHGAGGASILTFWDARLYKVAVGFMLAHPYGFTRVMSSYRWARNFVNGQDVNDWIGPPNNNGVIKEVTINADTTCGNDWVCEHRWRQIRNMVWFRNVVDGQPFANWWANGSNQVAFGRGNRGFIVFNNDDWQLSSTLQTGLPGGTYCDVISGDKVGNSCTGIKVYVSSDGTAQFSISNSAEDPFIAIHAESKL
notes: EC 3.2.1.1 from porcine pancreas (Type 1-A)
Relative activity compared to lichenase (mean ± SD, n = 12) [1]: 4.3 ± 0.2

Sensitivity (amount of enzyme required to hydrolyse 10% of the biotinylated α-casein) (biotinylated α-casein): 25 ng/100 ul/sample
B2: thermolysin: metaloprotease, EC 3.4.24.27 (protein, UniProt P00800 233-548, looked up)
Thermolysin: ITGTSTVGVGRGVLGDQKNINTTYSTYYYLQDNTRGNGIFTYDAKYRTTLPGSLWADADNQFFASYDAPAVDAHYYAGVTYDYYKNVHNRLSYDGNNAAIRSSVHYSQGYNNAFWNGSQMVYGDGDGQTFIPLSGGIDVVAHELTHAVTDYTAGLIYQNESGAINEAISDIFGTLVEFYANKNPDWEIGEDVYTPGISGDSLRSMSDPAKYGDPDHYSKRYTGTQDNGGVHINSGIINKAAYLISQGGTHYGVSVVGIGRDKLGKIFYRALTQYLTPTSNFSQLRAAAVQSATDLYGSTSQEVASVKQAFDAVGVK
Hydrolysis of biotin-casein by proteases (biotinylated α-casein): Yes

Sensitivity: amount of enzyme required to produce a 10% decrease in maximal absorbency (biotinylated α-casein; 0.5 hour hydrolysis): 700 ng/100 ul | Sensitivity (amount of enzyme required to hydrolyse 10% of the biotinylated α-casein) (biotinylated α-casein): 700 ng/100 ul/sample
B3: papain: cysteine protease, EC 3.4.22.2 (protein, UniProt P00784 134-345, looked up)
Papain: IPEYVDWRQKGAVTPVKNQGSCGSCWAFSAVVTIEGIIKIRTGNLNEYSEQELLDCDRRSYGCNGGYPWSALQLVAQYGIHYRNTYPYEGVQRYCRSREKGPYAAKTDGVRQVQPYNEGALLYSIANQPVSVVLEAAGKDFQLYRGGIFVGPCGNKVDHAVAAVGYGPNYILIKNSWGTGWGENGYIRIKRGTGNSYGVCGLYTSSFYPVKN
Hydrolysis of biotin-casein by proteases (biotinylated α-casein): Yes

Activity on biotin-arabinoxylan substrate [2]: No activity | Detection range for the ELSA [1]: 0.001 to 1 mU/assay | Detection range of the azo-barley glucan procedure [3]: 10 to 100 mU/assay
B4: endo-1,3-1,4-β-D-glucan-4-glucanohydrolase (protein, UniProt P04957 29-242, looked up)
Beta-glucanase: QTGGSFFDPFNGYNSGFWQKADGYSNGNMFNCTWRANNVSMTSLGEMRLALTSPAYNKFDCGENRSVQTYGYGLYEVRMKPAKNTGIVSSFFTYTGPTDGTPWDEIDIEFLGKDTTKVQFNYYTNGAGNHEKIVDLGFDAANAYHTYAFDWQPNSIKWYVDGQLKHTATNQIPTTPGKIMMNLWNGTGVDEWLGSYNGVNPLYAHYDWVRYTKK
notes: EC 3.2.1.73 from Bacillus subtilis, Megazyme
Relative activity compared to lichenase (mean ± SD, n = 12) [1]: 100 ± 4
